T1: HA-tagged striatin with deletion of residues 191-269 (human, UniProt O43815 1-780, deletion of residues 191-269)
T1 construct: source: HEK293 or HEK293 stably expressing FLAG-CCM3, transfected, in lysate; not shown: HA, N-terminal, kept
T1 sequence (looked up): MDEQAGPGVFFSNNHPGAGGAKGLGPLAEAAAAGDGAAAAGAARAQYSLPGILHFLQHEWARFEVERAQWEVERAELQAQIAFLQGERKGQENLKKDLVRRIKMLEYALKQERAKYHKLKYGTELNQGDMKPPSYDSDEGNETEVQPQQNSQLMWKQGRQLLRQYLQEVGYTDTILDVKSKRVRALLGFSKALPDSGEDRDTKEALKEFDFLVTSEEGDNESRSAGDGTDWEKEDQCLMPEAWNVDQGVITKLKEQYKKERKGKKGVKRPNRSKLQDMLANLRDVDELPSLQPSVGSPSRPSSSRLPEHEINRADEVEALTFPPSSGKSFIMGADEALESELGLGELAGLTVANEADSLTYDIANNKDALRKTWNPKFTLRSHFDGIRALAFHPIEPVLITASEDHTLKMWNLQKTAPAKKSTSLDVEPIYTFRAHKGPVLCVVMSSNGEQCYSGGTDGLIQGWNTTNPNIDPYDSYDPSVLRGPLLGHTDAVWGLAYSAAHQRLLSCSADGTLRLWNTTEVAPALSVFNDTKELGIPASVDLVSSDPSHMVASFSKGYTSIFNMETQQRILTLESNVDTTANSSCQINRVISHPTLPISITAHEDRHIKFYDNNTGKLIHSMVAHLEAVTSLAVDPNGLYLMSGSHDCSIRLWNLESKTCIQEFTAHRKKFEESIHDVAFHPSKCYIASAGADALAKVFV

T2: HA-tagged Δ(148-166) striatin (human, UniProt O43815 1-780, Δ(148-166))
T2 construct: source: HEK293, transfected, in lysate; not shown: HA, N-terminal, kept
T2 sequence (looked up): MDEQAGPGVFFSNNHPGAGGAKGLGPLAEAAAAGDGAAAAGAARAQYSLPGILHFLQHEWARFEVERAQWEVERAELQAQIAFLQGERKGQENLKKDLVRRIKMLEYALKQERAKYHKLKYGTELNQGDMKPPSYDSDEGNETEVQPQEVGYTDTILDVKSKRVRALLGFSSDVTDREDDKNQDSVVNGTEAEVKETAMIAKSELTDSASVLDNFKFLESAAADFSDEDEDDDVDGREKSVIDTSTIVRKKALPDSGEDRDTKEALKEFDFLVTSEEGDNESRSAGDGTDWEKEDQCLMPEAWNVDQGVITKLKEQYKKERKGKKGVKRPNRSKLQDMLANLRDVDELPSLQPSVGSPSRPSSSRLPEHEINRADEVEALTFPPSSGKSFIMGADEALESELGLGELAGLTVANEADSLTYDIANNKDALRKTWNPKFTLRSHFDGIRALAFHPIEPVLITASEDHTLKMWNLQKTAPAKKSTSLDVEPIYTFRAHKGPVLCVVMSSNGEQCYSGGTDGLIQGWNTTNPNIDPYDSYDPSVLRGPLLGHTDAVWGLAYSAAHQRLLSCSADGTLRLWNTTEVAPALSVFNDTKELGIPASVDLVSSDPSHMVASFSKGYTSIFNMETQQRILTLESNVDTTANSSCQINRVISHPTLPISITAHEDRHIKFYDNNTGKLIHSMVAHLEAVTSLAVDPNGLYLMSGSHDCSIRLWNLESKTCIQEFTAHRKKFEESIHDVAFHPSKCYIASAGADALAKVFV

T3: HA-tagged Δ(227-309) striatin (human, UniProt O43815 1-780, Δ(227-309))
T3 construct: source: HEK293, transfected, in lysate; not shown: HA, N-terminal, kept
T3 sequence (looked up): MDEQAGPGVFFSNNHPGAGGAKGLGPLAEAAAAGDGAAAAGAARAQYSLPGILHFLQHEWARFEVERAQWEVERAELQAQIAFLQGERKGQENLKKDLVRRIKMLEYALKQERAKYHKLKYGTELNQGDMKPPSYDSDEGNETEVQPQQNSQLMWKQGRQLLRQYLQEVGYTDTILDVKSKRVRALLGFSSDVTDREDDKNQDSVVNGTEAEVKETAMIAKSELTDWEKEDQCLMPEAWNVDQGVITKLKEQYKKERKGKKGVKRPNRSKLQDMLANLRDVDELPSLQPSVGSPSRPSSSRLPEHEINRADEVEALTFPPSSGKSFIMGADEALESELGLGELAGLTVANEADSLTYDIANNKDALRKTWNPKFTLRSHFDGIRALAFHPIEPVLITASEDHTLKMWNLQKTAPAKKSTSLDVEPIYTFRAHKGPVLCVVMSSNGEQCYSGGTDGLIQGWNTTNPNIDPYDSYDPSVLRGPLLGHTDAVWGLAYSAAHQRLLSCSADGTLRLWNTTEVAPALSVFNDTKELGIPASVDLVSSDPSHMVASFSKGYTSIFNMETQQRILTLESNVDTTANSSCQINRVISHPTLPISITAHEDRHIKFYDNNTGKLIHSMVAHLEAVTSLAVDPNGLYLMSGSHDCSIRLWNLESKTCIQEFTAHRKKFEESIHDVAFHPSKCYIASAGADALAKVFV

T4: HA-tagged Δ(270-344) striatin (human, UniProt O43815 1-780, Δ(270-344))
T4 construct: source: HEK293 or HEK293 stably expressing FLAG-CCM3, transfected, in lysate; not shown: HA, N-terminal, kept
T4 sequence (looked up): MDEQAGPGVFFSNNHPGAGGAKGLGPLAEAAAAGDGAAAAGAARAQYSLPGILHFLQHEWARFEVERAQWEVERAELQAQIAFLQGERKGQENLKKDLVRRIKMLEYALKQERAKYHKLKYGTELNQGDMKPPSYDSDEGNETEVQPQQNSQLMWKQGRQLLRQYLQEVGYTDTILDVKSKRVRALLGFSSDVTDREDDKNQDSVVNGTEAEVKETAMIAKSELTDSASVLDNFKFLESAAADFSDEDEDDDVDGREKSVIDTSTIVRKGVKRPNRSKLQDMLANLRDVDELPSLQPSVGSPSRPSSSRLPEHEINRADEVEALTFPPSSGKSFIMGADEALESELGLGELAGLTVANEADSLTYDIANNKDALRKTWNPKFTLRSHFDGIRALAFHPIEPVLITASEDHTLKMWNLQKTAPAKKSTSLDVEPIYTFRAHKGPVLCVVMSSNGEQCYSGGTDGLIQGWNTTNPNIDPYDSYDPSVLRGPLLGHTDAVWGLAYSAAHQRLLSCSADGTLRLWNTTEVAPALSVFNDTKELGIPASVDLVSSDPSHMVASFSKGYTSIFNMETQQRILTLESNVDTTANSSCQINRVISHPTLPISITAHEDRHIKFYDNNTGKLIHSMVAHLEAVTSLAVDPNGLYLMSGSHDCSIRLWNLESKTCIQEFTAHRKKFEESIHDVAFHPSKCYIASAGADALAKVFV

T5: HA-tagged R100S/R101E striatin (human, UniProt O43815 1-780, R100S | R101E)
T5 construct: striatin, human, double point mutant in the coiled-coil domain; source: HEK293, transfected, in lysate; not shown: HA, N-terminal, kept
T5 sequence (looked up): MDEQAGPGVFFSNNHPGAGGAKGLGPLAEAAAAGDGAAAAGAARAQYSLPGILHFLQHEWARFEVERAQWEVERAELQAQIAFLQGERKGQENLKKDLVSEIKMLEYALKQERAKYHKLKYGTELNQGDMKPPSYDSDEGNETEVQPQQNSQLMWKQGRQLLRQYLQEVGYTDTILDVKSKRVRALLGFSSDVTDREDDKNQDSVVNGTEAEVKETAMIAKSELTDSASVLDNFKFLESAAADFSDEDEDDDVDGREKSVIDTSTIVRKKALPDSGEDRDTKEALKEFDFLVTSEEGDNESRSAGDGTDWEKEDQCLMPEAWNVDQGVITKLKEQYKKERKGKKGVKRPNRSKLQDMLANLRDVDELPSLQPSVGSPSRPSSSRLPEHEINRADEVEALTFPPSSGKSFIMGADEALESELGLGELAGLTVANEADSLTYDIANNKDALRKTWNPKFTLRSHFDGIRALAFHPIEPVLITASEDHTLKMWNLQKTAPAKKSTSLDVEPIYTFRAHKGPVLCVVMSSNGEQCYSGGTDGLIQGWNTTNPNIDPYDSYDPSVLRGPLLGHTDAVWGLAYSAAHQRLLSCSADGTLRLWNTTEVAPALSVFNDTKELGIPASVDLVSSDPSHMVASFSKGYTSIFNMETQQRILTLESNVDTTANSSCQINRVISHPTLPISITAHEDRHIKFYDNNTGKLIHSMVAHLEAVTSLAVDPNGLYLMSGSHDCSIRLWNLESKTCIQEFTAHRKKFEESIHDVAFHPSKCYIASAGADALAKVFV


What was measured:
Assay in all cases: co-IP; anti-HA immunoprecipitates (12CA5 with protein A-Sepharose, or F7 anti-HA-agarose when probing for Mst3 or Mst4; 1.5 h, 4°C) of lysates (1% Nonidet P-40, 0.135 M NaCl, 10% glycerol, 20 mM Tris pH 8.0) of HEK293 cells transfected with HA-striatins; endogenous partners by immunoblot, partner/HA-striatin ratio by chemilumimager against wild type; 50 mM NaF and 100 nM okadaic acid in the lysis buffer in the …
Settings in all cases: partners not purified
[1] = target: T1, HA-tagged striatin with deletion of …
[2] = target: T2, HA-tagged Δ(148-166) striatin
[3] = target: T3, HA-tagged Δ(227-309) striatin
[4] = target: T4, HA-tagged Δ(270-344) striatin
[5] = target: T5, HA-tagged R100S/R101E striatin

Mst4 kinase, sequence (Q9P289 whole entry): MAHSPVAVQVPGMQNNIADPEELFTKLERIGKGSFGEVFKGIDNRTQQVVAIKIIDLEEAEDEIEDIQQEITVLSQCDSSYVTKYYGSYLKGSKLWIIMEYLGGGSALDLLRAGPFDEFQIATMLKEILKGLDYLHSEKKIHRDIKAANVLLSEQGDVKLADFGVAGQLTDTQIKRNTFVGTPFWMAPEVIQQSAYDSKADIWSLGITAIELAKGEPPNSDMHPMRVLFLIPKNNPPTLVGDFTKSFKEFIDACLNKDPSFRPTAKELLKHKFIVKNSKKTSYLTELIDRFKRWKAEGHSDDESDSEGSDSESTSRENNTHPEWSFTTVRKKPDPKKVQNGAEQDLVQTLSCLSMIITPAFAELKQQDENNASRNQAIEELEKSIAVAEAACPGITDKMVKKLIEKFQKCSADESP

Row | percent reduction in binding against wild-type striatin [1] | fold binding against wild-type striatin [2] | percent reduction in binding against wild-type striatin [3] | percent reduction in binding against wild-type striatin [4] | percent of the wild-type level bound [5] | Binder
1 | ~33% | ~3.5 fold | – | – | – | mammalian Ste20-like kinase Mst3 (enzyme, Mst3 kinase, endogenous in HEK293 cells; Runs as a lower and an upper (hyperphosphorylated) band; both are found with striatin; source: endogenous, HEK293 lysate) not shown
2 | 33% | ~4 fold | 38% | 75% | – | Mst4 kinase (enzyme, Mst4 kinase, endogenous in HEK293 cells; source: endogenous, HEK293 lysate) not shown
3 | – | – | – | – | 81 % of wild-type level | S/G2 nuclear autoantigen (SG2NA) (natural protein, human (endogenous in HEK293), UniProt Q13033 1-797, looked up, SG2NA, striatin family member, endogenous in HEK293 cells; source: endogenous, HEK293 lysate) MDELAGGGGGGPGMAAPPRQQQGPGGNLGLSPGGNGAAGGGGPPASEGAGPAAGPELSRPQQYTIPGILHYIQHEWARFEMERAHWEVERAELQARIAFLQGERKGQENLKKDLVRRIKMLEYALKQERAKYHKLKYGTELNQGDLKMPTFESEETKDTEAPTAPQNSQLTWKQGRQLLRQYLQEVGYTDTILDVRSQRVRSLLGLSNSEPNGSVETKNLEQILNGGESPKQKGQEIKRSSGDVLETFNFLENADDSDEDEENDMIEGIPEGKDKHRMNKHKIGNEGLAADLTDDPDTEEALKEFDFLVTAEDGEGAGEARSSGDGTEWDKDDLSPTAEVWDVDQGLISKLKEQYKKERKGKKGVKRANRTKLYDMIADLGDDELPHIPSGIINQSRSASTRMTDHEGARAEEAEPITFPSGGGKSFIMGSDDVLLSVLGLGDLADLTVTNDADYSYDLPANKDAFRKTWNPKYTLRSHFDGVRALAFHPVEPVLVTASEDHTLKLWNLQKTVPAKKSASLDVEPIYTFRAHIGPVLSLAISSNGEQCFSGGIDATIQWWNMPSPSVDPYDTYEPNVLAGTLVGHTDAVWGLAYSGIKNQLLSCSADGTVRLWNPQEKLPCICTYNGDKKHGIPTSVDFIGCDPAHMVTSFNTGSAVIYDLETSQSLVILSSQVDSGLQSNNHINRVVSHPTLPVTITAHEDRHIKFFDNKTGKMIHSMVAHLDAVTSLAVDPNGIYLMSGSHDCSIRLWNLDSKTCVQEITAHRKKLDESIYDVAFHSSKAYIASAGADALAKVFV

From PMC3217859, “Protein phosphatase 2a (PP2A) binds within the oligomerization domain of striatin and regulates the phosphorylation and activation of the mammalian Ste20-Like kinase Mst3” (BMC Biochemistry, 2011)
